Consider 2 molecules from patent publication US20200300873A1.

Assay [1] concerns the target T1, Human hepcidin peptide (hepcidin-25) (human).
T1 sequence (peptide): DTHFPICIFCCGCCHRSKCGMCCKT
The experiment in a line: Biacore (SPR); upper end of the estimated range 7-8 pM.

Assay [2] shares this target. The experiment in a line: method not stated.
Assay [3] shares this target. In words: Biacore (SPR); lower end of the estimated range 7-8 pM.
The target of assay [4] is Hepcidin MAb 583. The experiment in a line: competitive ELISA on mAb 583 coated wells; competitor biotinylated hepcidin-25 tracer; standard at 25 ng/mL. (An ELISA detects its analyte on a solid surface through an enzyme-linked reagent.)
Hepcidin MAb 583, sequence (heavy, as listed by the source, chain 1 of 2): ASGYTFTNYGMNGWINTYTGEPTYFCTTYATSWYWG
Hepcidin MAb 583, sequence (light, as listed by the source, chain 2 of 2): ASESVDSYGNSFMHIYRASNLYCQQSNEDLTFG
For assay [5], the target named is Hepcidin MAb 583. In words: competitive ELISA on mAb 583 coated wells; competitor biotinylated hepcidin-25 tracer; standard at 10 ng/mL.
Assay [6] deals with Hepcidin MAb 583. In words: competitive ELISA on mAb 583 coated wells; competitor biotinylated hepcidin-25 tracer; standard at 250 ng/mL.
Assay [7] addresses Hepcidin MAb 583. In words: competitive ELISA on mAb 583 coated wells; competitor biotinylated hepcidin-25 tracer; standard at 1000 ng/mL.
The target in assay [8] is Hepcidin MAb 583. The experiment in a line: competitive ELISA on mAb 583 coated wells; competitor biotinylated hepcidin-25 tracer; standard at 0 ng/mL.
The target in assay [9] is Hepcidin MAb 583. The experiment in a line: competitive ELISA on mAb 583 coated wells; competitor biotinylated hepcidin-25 tracer; standard at 50 ng/mL.
The target in assay [10] is Hepcidin MAb 583. In words: competitive ELISA on mAb 583 coated wells; competitor biotinylated hepcidin-25 tracer; standard at 100 ng/mL.
Assay [11] deals with Hepcidin MAb 583. In words: competitive ELISA on mAb 583 coated wells; competitor biotinylated hepcidin-25 tracer; standard at 2.5 ng/mL.

B1: Hepcidin MAb 583 (antibody, from a related filing, V domains shown, part only)
VH: QIQLVQSGPELKKPGETVKISCKASGYTFTNYGMNWVKQAPGKGLKWMGWINTYTGEPTYADDFKGRFAFSLETSASTAYLQINNLKNEDTATYFCTTYATSWYWGQG
VL: DIVLTQSPASLAVSLGQRATISCRASESVDSYGNSFMHWYQQKPGQPPKLLIYRASNLESGIPARFSGSGSRTDFTLTINPVEADDVATYYCQQSNEDLTFG
For B1, the Kd in [1] and in [3] was 7 to 8 pM throughout. In assay [2], this molecule returned an affinity (unit not given) of 5.16e-11.

Turning to DTHFPICIFCCGCCHRSKCGMCCKT [Human hepcidin peptide (hepcidin-25)], the Absorbance (450 nm) was 0.9 OD 450 nm with Hepcidin MAb 583 [4]; 1.61 OD 450 nm in the assay with Hepcidin MAb 583 [5]; 0.1 OD 450 nm with Hepcidin MAb 583 [6]; 0.03 OD 450 nm in the assay with Hepcidin MAb 583 [7]; 2.36 OD 450 nm with Hepcidin MAb 583 [8]; 0.47 OD 450 nm in the assay with Hepcidin MAb 583 [9]. The Absorbance (450 nm) was 0.24 OD 450 nm in the assay with Hepcidin MAb 583 [10] and 2.14 OD 450 nm with Hepcidin MAb 583 [11].
